Measurements reported in patent US20240016847A1 (TRUSTEES OF COLUMBIA UNIVERSITY IN THE CITY OF NEW YORK, published 2024).

Tests used:
[1] = biological target: sfGFP linked to the PlGF123-144 peptide sequence with a flexible glycine-serine linker at the C-terminus …; assay: cell-based or functional assay
[2] = biological target: sfGFP with a cysteine substitution at position D117 (D117C synthetic antigen) (Aequorea victoria (Water jellyfish) …, UniProt P42212 2-238 = GFP); assay: cell-based or functional assay

B1: GFP specific ProCAR construct (GFP28z): sfGFP-binding nanobody, IgG4 hinge, CD28 transmembrane and intracellular domains, CD3zeta signaling domain (receptor)
chain: QVQLQESGGGSVQAGGSLKLSCAASGGAYRNACMGWFRQAPGKEREGVAIINSVDTTYYADPVKGRFTISRDNAKSTVYLLMNSLKPEDTAIYYCAQVARVVCPGDKLGASGYNYWGQGTQVTVSSGSESKYGPPCPCPAFWVLVVVGGVLACYSLLVTVAFIIFWVRSKRSRLLHSDYMNMTPRRPGPTRKHYQPYAPPRDFAAYRSLRVKFSRSADAPAYQQGQNQLYNELNLGRREEYDVLDKRRGRDPEMGGKPRRKNPQEGLYNELQKDKMAEAYSEIGMKGERRRGKGHDGLYQGLSTATKDTYDALHMQALPPR
For B1, the “SA-driven fold expansion of GFP28z” value [1] was 8 fold, the “viability of GFP28z T cells after 24 hr with 500 ng/mL PlGF-SA, relative to untreated controls” value [1] was ~72 % of untreated controls and the “SA-driven fold expansion of GFP28z” value [2] was 8 fold.
